As a reminder, the stoichiometry N is the number of molecules, sites or subunits per partner or assembly.

In assay [1] the target is BG505 SOSIP.664 gp140 trimer (HIV-1 (clade A, strain BG505)) (UniProt Q2N0S6). Kind of assay: SEC.
For assay [2] the target is unchanged. Kind of assay: native gel or EMSA. Background: A gel shift assay detects complexes by their altered migration in electrophoresis.
The target in assay [3] is clade B tier 3 H078.14 UFO-BG gp140 trimer (HIV-1 (clade B, strain H078.14) | HIV-1 (clade A, strain BG505)). Kind of assay: crystal structure.
Assay [4] addresses BG505 UFO gp140 trimer (HIV-1 (clade A, strain BG505)). Briefly: SEC. (In general: SEC sorts molecules by how far they enter the pores of the column.)
The target is the same in assay [5]. Kind of assay: native gel or EMSA.

For the substance “BG505 SOSIP.664 gp140 trimer (from UniProt Q2N0S6 31-505) (complex)”, the stoichiometry N in assay [1] and in assay [2] was 3 in each case.
In assay [3], “clade B tier 3 H078.14 UFO-BG gp140 trimer” displayed a stoichiometry N of 3.
Regarding BG505 UFO gp140 trimer, the stoichiometry N in assay [4] and in assay [5] was 3 throughout.

(Values after article PMC6248932.)
